Measured values published in PMC10359280, “A maize epimerase modulates cell wall synthesis and glycosylation during stomatal morphogenesis” (Nature Communications, 2023).

Columns and labels:
[1] = biological target: BZU3 (maize UDP-glucose 4-epimerase), recombinant 6×His-BZU3 (maize); test: crystal structure; BZU3 (~5.0 mg/ml) crystallised by sitting-drop vapor diffusion, 100 mM sodium malonate pH 5.0, 12~16% PEG3350; apo form and crystals soaked with 5 mM UDP-Glc or UDP-GlcNAc
[2] = biological target: T1, BZU3 (Zea mays, UniProt C0HI30); test: X-ray crystal structure, […] Å, soaked with […] ligand; assay type: binding; settings: ternary complex with NAD+, crystals at pH 5.0
T1 construct: gene ZEAMMB73_Zm00001d029151; residues 1-189 NAD domain, 190-355 sugar domain; homo-dimer
T1 sequence (C0HI30 1-355): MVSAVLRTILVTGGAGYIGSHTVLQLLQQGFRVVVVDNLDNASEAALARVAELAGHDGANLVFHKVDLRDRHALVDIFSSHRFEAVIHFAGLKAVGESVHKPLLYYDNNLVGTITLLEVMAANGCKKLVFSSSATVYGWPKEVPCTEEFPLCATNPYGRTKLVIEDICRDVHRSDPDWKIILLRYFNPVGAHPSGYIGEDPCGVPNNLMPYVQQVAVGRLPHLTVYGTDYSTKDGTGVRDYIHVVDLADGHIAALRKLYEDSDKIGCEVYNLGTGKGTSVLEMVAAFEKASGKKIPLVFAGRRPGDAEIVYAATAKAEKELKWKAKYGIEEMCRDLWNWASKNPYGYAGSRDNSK

[3] = biological target: T1, BZU3; test: X-ray crystal structure; assay type: binding; settings: no ligand soak for 7XPP; with UDP-Glc 7XPO; with UDP-GlcNAc 7XPQ
[4] = substrate: O=c1ccn([C@@H]2O[C@H](COP(=O)(O)OP(=O)(O)O[C@H]3O[C@H](CO)[C@H](O)[C@H](O)[C@H]3O)[C@@H](O)[C@H]2O)c(=O)[nH]1; test: HPLC of UDP-Glc/UDP-Gal, Michaelis-Menten; assay type: biochemical, Zea mays; settings: 10 mM Tris-HCl pH 8.0, 30 °C, 25 nM enzyme, 1 min
[5] = substrate: O=c1ccn([C@@H]2O[C@H](CO[P@@](=O)(O)O[P@@](=O)(O)O[C@H]3O[C@H](CO)[C@@H](O)[C@H](O)[C@H]3O)[C@@H](O)[C@H]2O)c(=O)[nH]1; test: HPLC of UDP-Glc/UDP-Gal, Michaelis-Menten; assay type: biochemical, Zea mays; settings: 10 mM Tris-HCl pH 8.0, 30 °C, 25 nM enzyme, 1 min
[6] = substrate: CC(=O)N[C@H]1[C@@H](OP(=O)(O)OP(=O)(O)OC[C@H]2O[C@@H](n3ccc(=O)[nH]c3=O)[C@H](O)[C@@H]2O)O[C@H](CO)[C@@H](O)[C@@H]1O; test: HPLC of UDP-GlcNAc/UDP-GalNAc, Michaelis-Menten; assay type: biochemical, Zea mays; settings: similar protocol (10 mM Tris-HCl pH 8.0, 30 °C)
[7] = substrate: CC(=O)N[C@H]1[C@@H](OP(=O)(O)OP(=O)(O)OC[C@H]2O[C@@H](n3ccc(=O)[nH]c3=O)[C@H](O)[C@@H]2O)O[C@H](CO)[C@H](O)[C@@H]1O; test: HPLC of UDP-GlcNAc/UDP-GalNAc, Michaelis-Menten; assay type: biochemical, Zea mays; settings: similar protocol (10 mM Tris-HCl pH 8.0, 30 °C)

Molecule: BZU3 (maize UDP-glucose 4-epimerase), recombinant 6×His-BZU3 (enzyme)
- stoichiometry N [1]: 2

Molecule: CC(=O)N[C@H]1[C@@H](OP(=O)(O)OP(=O)(O)OC[C@H]2O[C@@H](n3ccc(=O)[nH]c3=O)[C@H](O)[C@@H]2O)O[C@H](CO)[C@@H](O)[C@@H]1O [UDP-GlcNAc]
- X-ray crystal structure, 2.15 Å, soaked with 5 mM ligand [2]: The structure of BZU3 in complex with NAD^+/UDP-GlcNAc was similar to that of BZU3/NAD^+/UDP-Glc

Molecule: NC(=O)c1ccc[n+]([C@@H]2O[C@H](COP(=O)(O)OP(=O)(O)OC[C@H]3O[C@@H](n4cnc5c(N)ncnc54)[C@H](O)[C@@H]3O)[C@@H](O)[C@H]2O)c1 [NAD^+]
- X-ray crystal structure [3]: both Y157 and K161 directly interact with the ribose moiety of NAD^+

B1: BZU3 (Zea mays) (protein)
chain: T1 sequence (C0HI30 1-355)
notes: residues 1-189 NAD domain, 190-355 sugar domain; homo-dimer
- Km [4]: 1450 µM
- Km [5]: 2670 µM
- Km [6]: 400 µM
- Km [7]: 500 µM
